What all share (conditions): both partners purified
Test [1] has as its target T1, full-length human P97/VCP (Valosin-Containing Protein) (human, UniProt P55072 1-806).
T1 construct: P97/VCP (valosin-containing protein), human, full length; Cloned into pRSF-32 M (N-terminal thioredoxin and 6xHis) or pET-28a; source: E. coli BL21 (DE3), purified (Ni-NTA, size exclusion chromatography)
Kind of test: pull-down; 50 µg GST-tagged VCPIP1 protein held on glutathione Sepharose 4B, full-length P97/VCP at molar ratio 1:3; 20 mM Tris pH 7.5, 100 mM NaCl, 1 mM DTT; Coomassie staining.

Test [2] concerns the target T2, Syntaxin5 (STX5) contained SNARE complex (syntaxin-5, GOSR1, Ykt6, Bet1, without transmembrane domains) (human, UniProt Q13190 55-330; O95249 150-230; O15498 1-193; O15155 1-93).
T2 construct: syntaxin-5, human, residues 55-330; GosR1, human, residues 150-230; Ykt6, human, residues 1-193; Bet1, human, residues 1-93; also called intact SNARE complex; SNARE substrate; source: E. coli BL21 (DE3), pellets mixed and lysed together, purified (amylose resin, size exclusion chromatography); not shown: MBP, N-terminal, kept; copies: + + +
T2 sequence (looked up) 1: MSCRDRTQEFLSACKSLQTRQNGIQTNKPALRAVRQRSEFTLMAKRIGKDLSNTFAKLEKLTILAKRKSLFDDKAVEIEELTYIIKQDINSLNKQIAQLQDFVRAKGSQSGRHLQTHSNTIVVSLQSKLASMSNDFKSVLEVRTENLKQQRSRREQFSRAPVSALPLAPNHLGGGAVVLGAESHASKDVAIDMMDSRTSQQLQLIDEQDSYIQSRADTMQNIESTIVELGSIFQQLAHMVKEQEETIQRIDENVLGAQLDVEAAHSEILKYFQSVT
T2 sequence (looked up) 2: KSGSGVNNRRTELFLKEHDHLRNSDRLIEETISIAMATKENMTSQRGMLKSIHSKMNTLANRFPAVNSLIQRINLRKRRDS
T2 sequence (looked up) 3: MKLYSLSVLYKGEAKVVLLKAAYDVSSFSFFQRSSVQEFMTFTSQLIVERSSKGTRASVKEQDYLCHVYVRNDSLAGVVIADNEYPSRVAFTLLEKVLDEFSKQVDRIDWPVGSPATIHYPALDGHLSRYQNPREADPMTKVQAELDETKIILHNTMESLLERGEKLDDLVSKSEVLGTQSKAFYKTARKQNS
T2 sequence (looked up) 4: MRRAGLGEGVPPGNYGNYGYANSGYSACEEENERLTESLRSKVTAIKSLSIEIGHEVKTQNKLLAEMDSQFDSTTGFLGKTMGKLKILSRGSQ
The test can be described thus: pull-down; MBP pull-down, SNARE complex held by MBP-syntaxin5; P97/VCP-P47 without or with VCPIP1 WT or Y623E/F638E added (VCPIP1 WT enhanced, the double mutant did not).

For test [3], the target named is T1, full-length human P97/VCP …. The description is as above.
The target in test [4] is T3, N-terminal region of VCPIP1 (residues 40-464) (human, UniProt Q96JH7 40-464).
T3 construct: VCPIP1, human, N-terminal region with the OTU domain, residues 40-464; also called N-terminal OTU domain (residues 40-464); source: E. coli BL21 (DE3) (said of the recombinant proteins in general), purified
T3 sequence (looked up): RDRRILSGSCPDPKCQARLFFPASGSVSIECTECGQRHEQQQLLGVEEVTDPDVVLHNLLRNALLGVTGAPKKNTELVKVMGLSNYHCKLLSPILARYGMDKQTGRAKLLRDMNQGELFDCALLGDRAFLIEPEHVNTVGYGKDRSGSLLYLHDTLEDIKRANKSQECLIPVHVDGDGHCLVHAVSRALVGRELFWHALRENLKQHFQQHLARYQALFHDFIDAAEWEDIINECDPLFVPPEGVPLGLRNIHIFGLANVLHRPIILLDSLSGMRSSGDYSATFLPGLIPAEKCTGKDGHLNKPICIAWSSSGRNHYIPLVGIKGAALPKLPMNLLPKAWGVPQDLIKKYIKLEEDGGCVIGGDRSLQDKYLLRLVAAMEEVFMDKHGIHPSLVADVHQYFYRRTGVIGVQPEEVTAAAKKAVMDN
Kind of test: SEC; gel filtration co-migration of purified fragments, fractions on SDS-PAGE with Coomassie staining. On the technique in general: SEC sorts molecules by how far they enter the pores of the column.

B1: GST-VCPIP1 F3 fragment (IDR2-UBL-UFD2) (domain or fragment, human, UniProt Q96JH7 680-1000, looked up)
chain: QGQESESQLPTKIILTGQKTKTLHKEELNMSKTERTIQQNITEQASVMQKRKTEKLKQEQKGQPRTVSPSTIRDGPSSAPATPTKAPYSPTTSKEKKIRITTNDGRQSMVTLKSSTTFFELQESIAREFNIPPYLQCIRYGFPPKELMPPQAGMEKEPVPLQHGDRITIEILKSKAEGGQSAAAHSAHTVKQEDIAVTGKLSSKELQEQAEKEMYSLCLLATLMGEDVWSYAKGLPHMFQQGGVFYSIMKKTMGMADGKHCTFPHLPGKTFVYNASEDRLELCVDAAGHFPIGPDVEDLVKEAVSQVRAEATTRSRESSPS
notes: VCPIP1, human, residues 680-1000; pGEX-6P-1 vector; source: E. coli BL21 (DE3), purified (glutathione Sepharose 4B, size exclusion chromatography); not shown: GST, N-terminal, kept
Turning to B1, the binding result in test [1] is reported as “binds”.

B2: GST-VCPIP1 F1 fragment (IDR1-OTU) (domain or fragment, human, UniProt Q96JH7 1-464, looked up)
chain: MSQPPPPPPPLPPPPPPPEAPQTPSSLASAAASGGLLKRRDRRILSGSCPDPKCQARLFFPASGSVSIECTECGQRHEQQQLLGVEEVTDPDVVLHNLLRNALLGVTGAPKKNTELVKVMGLSNYHCKLLSPILARYGMDKQTGRAKLLRDMNQGELFDCALLGDRAFLIEPEHVNTVGYGKDRSGSLLYLHDTLEDIKRANKSQECLIPVHVDGDGHCLVHAVSRALVGRELFWHALRENLKQHFQQHLARYQALFHDFIDAAEWEDIINECDPLFVPPEGVPLGLRNIHIFGLANVLHRPIILLDSLSGMRSSGDYSATFLPGLIPAEKCTGKDGHLNKPICIAWSSSGRNHYIPLVGIKGAALPKLPMNLLPKAWGVPQDLIKKYIKLEEDGGCVIGGDRSLQDKYLLRLVAAMEEVFMDKHGIHPSLVADVHQYFYRRTGVIGVQPEEVTAAAKKAVMDN
notes: VCPIP1, human, residues 1-464 (methods); the results print 1-465; pGEX-6P-1 vector; source: E. coli BL21 (DE3), purified (glutathione Sepharose 4B, size exclusion chromatography); not shown: GST, N-terminal, kept
For B2, the binding result in test [1] was “binds”.

B3: full-length human P47 (natural protein, UniProt Q9UNZ2 1-370, looked up)
chain: MAAERQEALREFVAVTGAEEDRARFFLESAGWDLQIALASFYEDGGDEDIVTISQATPSSVSRGTAPSDNRVTSFRDLIHDQDEDEEEEEGQRFYAGGSERSGQQIVGPPRKKSPNELVDDLFKGAKEHGAVAVERVTKSPGETSKPRPFAGGGYRLGAAPEEESAYVAGEKRQHSSQDVHVVLKLWKSGFSLDNGELRSYQDPSNAQFLESIRRGEVPAELRRLAHGGQVNLDMEDHRDEDFVKPKGAFKAFTGEGQKLGSTAPQVLSTSSPAQQAENEAKASSSILIDESEPTTNIQIRLADGGRLVQKFNHSHRISDIRLFIVDARPAMAATSFILMTTFPNKELADESQTLKEANLLNAVIVQRLT
notes: P47 (adaptor of P97/VCP), human, full length; Cloned into pRSF-32 M or pET-28a; source: E. coli BL21 (DE3), purified (Ni-NTA, size exclusion chromatography)
Turning to B3, the binding result in test [2] and in test [3] was “binds” each time.

B4: C-terminal tail of P97/VCP (residues 765-806) (domain or fragment, human, UniProt P55072 765-806, looked up)
chain: SRGFGSFRFPSGNQGGAGPSQGSGGGTGGSVYTEDNDDDLYG
notes: P97/VCP, human, C-terminal tail, residues 765-806; also called P97/VCP tail; source: E. coli BL21 (DE3) (said of the recombinant proteins in general), purified
For B4, the binding result in test [4] was “binds”.
